Assay results as given in the DeepSol protein solubility set.

Test: soluble on expression in E. coli; label from the status in PepcDB or PDB records

Row | Sequence | soluble on expression in E. coli
1 | MGSDKIHHHHHHMRDFLKSAFGRSKPKQLRILPQDVTIEIGQGQTLLEAALANGIAYPHDCTVGTCASCKTRLKQGRVREATPFGYTLSKDELDAGYILACQAFPKDELTVVEIDSSAGDLMPAEKYTANIIATEPLTHDILRVTVQTDRAVSYAAGQYANLRKAGGGRARSYSFANAPQRKGRTLLEFYIRKVPGGEFTESLFGGELKGVSLEMEAPLGTFHLRAGDSHMVCIAGGSGLAPLVSILEHARGNRIKRDCTLLFGARTQADLYQLDAIGSIASNWQGDFRFIPVLSDEPLDSDWKGARGLVTDHIAPGFCEGGEGYLCGPPLMIDAAIASLAKHGIPLEKVFYDKFTDSRDR | not soluble
2 | GMRSNRVTQHPPLQLSLPVHLPDDETFTSYYPAAGNDELIGALKSAASGDGVQAIYLWGPVKSGRTHLIHAACARANELERRSFYIPLGIHASISTALLEGLEQFDLICIDDVDAVAGHPLWEEAIFDLYNRVAEQKRGSLIVSASASPMEAGFVLPDLVSRMHWGLTYQLQPMMDDEKLAALQRRAAMRGLQLPEDVGRFLLNRMARDLRTLFDVLDRLDKASMVHQRKLTIPFVKEMLRL | soluble
3 | MKSVTVFLLAGTTFAIYFDGKGSRHSSSSSEEHGGHGPRPGPGGPGRGGNCSPGWLRFERQSGVWCVFVGLAGINDNSFAQKDGQSACVALGATLTGFQNDKERMAVADEAGRKLGAAGGGIAGLWLGATTRAGCKAGACGPLNTFMWTDGVTTGTAGLKWATGEPDSVDYPGTAACIQQFIMLPNWVPGPYDLEGFRTGFTHGILYKFSCIAPVTPGTRMFACGKMAAG | not soluble
4 | MSLNGSRRIPQPIRWAMVGGGSQSQIGYIHRCAALRDNTFVLVAGAFDIDPIRGSAFGEQLGVDSERCYADYLSMFEQEARRADGIQAVSIATPNGTHYSITKAALEAGLHVVCEKPLCFTVEQAENLRELSHKHNRIVGVTYGYAGHQLIEQAREMIAAGELGDVRMVHMQFAHGFHSAPVEAQSQATQWRVDPRQAGPSYVLGDVGTHPLYLSEVMLPDLKIKRLMCSRQSFVASRAPLEDNAYTLMEYEGGAMGMVWSSAVNAGSMHGQKIRVIGSRASLEWWDERPNQLSFEVQGQPAQILERGMGYLHPNALIDDRIGGGHPEGLFEAWANLYYRFALAMDATDRSDTQALSAVRYPGIDAGVEGVRWVERCVLSADNDSIWVAYEGHHHHHH | soluble
5 | SRRSLRAGKRRQTAGRKSKSPPKVPIVIQDDSLPAGPPPQIRILKRPTSNGVVSSPNSTSRPTLPVKSLAQREAEYAEARKRILGSASPEEEQEKPILDRPTRISQPEDSRQPNNVIRQPLGPDGSQGFKQRR | soluble
6 | MAEARPDSLTRSRAAKPAGEGAAFSPLYRQIKELLVQSLDRGEWKPGELIPSEIDLAARFQVSQGTVRKAVDELAAEHLLLRRQGKGTFVATHHEARVRYRFLRLAPDEEGEGGRAESRILECRRLRAPAEIARALELRAGETVVTIRRQLSMNHMPTVIDDLWLPGTHFRGLTLELLTASKAPLYGLFESEFGVSMVRADEKLRAVAASPEIAPLLGVEPGRPLLQVDRISYTYGDRPMEVRRGLYLTDHYHYRNSLN | soluble
7 | MSLEGGKGPRLRDFLSGSLATWALGLAGLVGEAEDSEGEPLWLEKRFLRLSDGALLLRVLGIIAPSSRGGPRMLRGLDGPAAWRVWNLNHLWGRLRDFYQEELQLLILSPPPDLQTLGFDPLSEEAVEQLEGVLRLLLGASVQCEHRELFIRHIQGLSLEVQSELAAAIQEVTQPGAGVVLALSGPDPGELAPAELEMLSRSLMGTLSKLARERDLGAQRLAELLLEREPLCLRPEAPSREGHHHHHH | soluble
8 | MGSDKIHHHHHHMNTANPEQALAMSQAKLLCDTMSTLAESPVWDERRQVLFWCDILGKTVRSAALEPGQYREWPFPHTVSSLGLRENGDLVVACGMDIVILDPDSGRTRLLHSIPAPEGIPCRLNDGRVGPDGAFWVGTMHNVPLSEMKPYGELWRITATSAKRMQTGLTCPNGLAFSPDGSIMWQSDSVQKWIRRRNFYRVNGLFDEGVLVAQMTEETGRPDGGCLDSSGTYYSAGVSAGMLNVFAEDGGKQTAAIKMPVPHPTMPCFGGPDFSTLFVTSHRHNMSAERLEQAPFSGGVWMIPTQTKGFAPFRFEG | not soluble
9 | MSINIEQAIIHEISQDSQGQLRCRLRPQPLLNGQAVEMMLEELHQTYTSKSGKGFGYFGIHGDDGEANPAFANALKEYRAGDLGFVEFTGQASKLLQEELAKYDFSQGGFLLMSCYTSMASDYLFVALLSAKSSMTVLDDMELSQNNHLDLNNIQLAARIDLTELQADKDSRKYISFIRGRAGRKVADFFLDFMGCVEGVNTKAQNKTLMNAVEDFVASSDLTKEERQQCRNKVFEYCSERFDEGADIEIKDLADELADQGMESFYDFARGGSYELDEEFPADKSTLRQLKKFSGTGGGVTISFDGGHLGQRVIYDPISDTILIKGVPANLKDQLDRRLKGE | soluble
10 | MAAKHVLFSTDARQKMLSGVNLLANAVKVTLGPKGRHVVLNKSYGAPTITKDGVSVAKEIELADKFENMGAQMLKQVASKANDEAGDGTTTATVLAQALINEGMKAVAAGMNPMDLKRGIDKAVSAAVEKLHQLAKPCSDTQSITQVGAISANSDHAIGEIIAQAMEKVGRNGVITVEEGQALQNELSVVEGMQFDRGYLSPYFINQPKAGCVELENPYVLLVDKKISHIRELLPILESVAKASRSLLIIAEDVDGDALATLVVNSMRGIIKVAAVKAPGFGEQRKAMLEDIAALTAGRVISEEIGLELEKVTLDDLGSAKKVTINKDNTTIVDGAAEPSALQDRIAQIQHQLEHTTSQYDRDKLQQRIAKLSGGVAVIKIGAATEVEMKEKKDRVDDALHATRAAVEEGIVAGGGVALLKIANELSNLQGDNDDQNVGIRIALRAMEEPLRQIAINAGDEASVIANQVKTGDEHYGYNAATGQFGNMLEMGILDPAKVTRSALQFAASIAGLMITTEAMVSEVDKESAA | not soluble
11 | MGSDKIHHHHHHMKVTFGQQTTKVKQLADLLSQEISMGKYKSDCTLPSINKLSREYQVSRDTVFKAFIDLKDRGIIDSTPGKGYYVTNKLTNILLLLDEYSPFKYSLYNSFIKKLSINYKVDLLFHQYNERLFNTILRESIGRYNKYIVMNFDNEKLSPHLYKIDSSKLLLLDFGKFDKKDYSYVCQDFDDSFYHALAALKEHLRKYQRLVLLFPEDIKHPRSSCQYFNCFCQDYHIDSAIVENTDRIQVRKGEVYIAIRQIEVVNIIKQSRTTGLKCGEDFGLIAYNDTPAYEVIDQGITVLSINWEELGRKAAEFVLTGQEIRTYLPTEVHLRNSI | not soluble
12 | MGSDKIHHHHHHMHLIDFMNEDIKKKLVKKTYKKKETILFAEQENEYVILMIDGIAEAFILNVKGNISTIHLYRSGSFFGEMEQFNDGKKPVEIVAFTDCNVYKLHRDDFLNWLRGDFEATKFLIREISSKLVVNAELIEELSSLSVKERLLRCISLHYYRSELNLLTKKQLASEVNAPIRSINRAINECVQEHLIAYENKRFSVINQREVLKNLPTT | not soluble
13 | LYIHGFASSGESHKAKALKAGLAPYEVMTPTLSYVPSLAFQTLRQLVDESLAQKEELTLIGASLGGYYATQLSWLYNLKAILINPAITPYETL | not soluble
14 | GPGSMTVVRAALLGFGTVGQGIYKIVQQRREQLKQKLGGAELVIVKILVRDLRKRSRVLPDGYASDAKLFTNNIEDVFRADVQVIFEATVGEEPAFTYLQRAIVEHGCSVITANKVMFARYGATLQELAASCTPTSSFPATRVYVGFEATVAAGVPIIKTLQNMCHVQQVRKIEGIVNGTSNYILTELREYPEKSFEEVLKKSQELGYAEADPTNDISGHDAFMKLLVMVAIAFGHQPSRSTVPVTGIDTLTPEMLQDARAKGLRYRHVVSAAMEGAATSSCALKSSAAEGEEAQPRTPPLHERLTCSVKPMLLGPEHPLYHMDGTTSAVSVWTDYLGVVTISGPGAGMYCTASAMMEDYAVWMEAFRRP | not soluble
15 | MGGSHHHHHHGMASALAQVAMSTLPVEDEESSESRMVVTFLMSALESMCKELAKSKAEVACIAVYETDVFVVGTERGRAFVNTRKDFQKDFVKYCVEEEEKAAEMHKMKSTTQANRMSVDAVEIETLRKTVEDYFCFCYGKALGKSTVVPVPYEKMLRDQSAVVVQGLPEGVAFKHPENYDLATLKWILENKAGISFIIKRPFLEPKKHVGGRVMVTDADRSILSPGGSCGPIKVKTEPTEDSGISLEMAAVTVKEESEDPDYYQYNIQGSHHSSEGNEGTEMEVPAEG | not soluble
16 | MSLPEDYWSAKDYQRNASFVPKLTKDIVKRINLSSSDELLDLGCGDGVLTNELVSQCRRVVGIDASPDMIKAARELGLNAYVIPGEKLLDASEIPSESFDVVFSNAALHWIMRQPKNRPIVMKGVSRVLRTKGRFVAECGAFGNVSEVVGSIYSILLALGATKEQIDQANPWFFGSEDDYTRMLEEAGFHVEYVENISRPTLLNKDVREWLDTFAQHFYHAFPQWKDIIRETVYNALLVTDCRSDGKWFLQYRRLRFVAHKEEGHHHHHH | soluble
17 | MGSDKIHHHHHHTDENETNNGKRTDCYNGTPLTVRATATGFENVPGSEKPSTRASVTDEHLKTEFVDGDSIGIFSIKDSTIVDDINNIPLVYNVSNDSWNPVENSKTLYWYDGASYIAYYPYRKNITLDVSKDTDEAIASLTRNEKLQPSKDQSTKEKHTVSDLLIATGVPTTGNSSGIILNLQFKHQFTLLVLQPQAYIGCFAPENAGFVYHKESRILGTDSAAINVNLNGITPYQIDSVKFCAIVPSQKNARITGSYVTADGRNNTNTKINYSGSSITFASGKCYTLKVISPVPGKGSTERKLYPGDFVFQNETEKRIEIHPGDGMLEENGKIYDYQNAIGMVITCDSKKMTDVKCNENGWNHAYVMGFENLGTGRWGGMERIEEGITPMTKDDEIEKNMNGYSETEQMLKNYTANVQGSYSAFESIRKYRNSNKIPDGLNRSPWFVPSIGQWFDMLVNICGKSPRDFRNETSNGLNDTGWGQETLDKLTIQLSKVGNSLPQFSDTYRLGFSCSSQYDKDRCWMLLWHIDDPEYPNWDRVCLQGYDKKAYWNVRPFFAF | not soluble
18 | MAHKSKSPYLMYPEKEPFPILNKHSHYDHLFEEMYELEEKGEILVFRITEEYRPKYVYTRTGRIKVIPTNKLWHHKSCGQCGNIPGYPASIFWFMNKFGLDYLNEPHQTSCTAWNYHGSGTSNPVALAAVWLRNMHQAWKTGYYPLIHCGTSFGSYKETREQLIFNKELREAVKPILKKLGRLTEDGRIVIPQEIVHYSEWVHAMRDGNSRPLRKRKESPKE | not soluble
19 | MGRCYNNIVIDASIEAVWQQIGNFHDMSWAKGVITSLVKVGPASGTEVGAKRILNDAIHETLVSLDSSNYTFTYSIDDGPDAIAKSAVDNYLGMVNLSESSTGVLVEWSSSFTSDNEKAVTEFCDPIYMALLGALKNSLRLEHHHHHH | soluble
20 | HMSVILDTKGEPVSNAADAYYLVPVSHGEGGLALAKVGNEAEPKAVVLDPHHRPGLTVRFETPLAIAIITESFFLNIKFVPSSSDSEVWDVSKQYPIGLAVKVTDTKSFVGPFRVEKEGEGYKIVYYPDRGQTGLDIGLVHRNDKYYLAATEGEPFVFKIRKATYE | soluble
21 | KELKIILLTDMHVGSLLQKDFVDYIVEEVNQKEVDMVLIGGDLVDESIEKVKSFLLPLNNLKSTHGTFYVPGNHEYYHGIEPILSFLDTLNLTILGNECVHLGGINLCGVYDYFARKRQNFAPDIDKALKKRNESKPTILLAHQPKQIRSLKESHSVDLVLSGHTHAGQIFPFSLLVKLAQTYLHGLYKHSP | not soluble
22 | YTRRSIEKMVKTQVDSKVLDEKNKYYEQQLVTMKQTLESQRTVRHDLKNKLSPLIYLAESGKTDELVEQVQELGSLSVLGKIYADSGNITIDYIINLKLQALANKGVTIFCEINVPNDIDVVPFDLSTVLGNLIDNAAEALEYVQNEKWIGIKISYQVGFLMIQVANSFDGIVHLDNKKIISRKEDTENHGIGLTSIKKIAGKYDGEVVVQHDDKQFDVIVKLLA | not soluble
